Assays:
LacR = details: modified LacR DNA response sequence SEQ ID NO:35
p50 NF-κB = assay: Gel mobility shift assay, displacement of p50 NF-kB; type: binding; details: JF102 oligonucleotide
Excerpt: A purified Thioredoxin-p50 NF-kB fusion protein (p50C) (Genelabs Technologies, Inc.) was used to generate five oligonucleotides comprising an NF-kB DNA response element and one or two overlapping binding sites for the AT-rich binder, 21x.
The exemplified NF-kB binding sites, […] (SEQ ID NO:29) and […] (SEQ ID NO:30) are present in the Igk and IL-6 promoters, respectively.
Oligonucleotides JF101 (SEQ ID NO:31) and 102 (SEQ ID NO:32), have compound binding sequences overlapping the right side of the NF-kB DNA response element, while in the case of JF103 (SEQ ID NO:33), the overlaps are from both sides (FIG. 7).

[1] = test system: UL9-VP16 chimeric activator (ULVP) (Herpes simplex virus type 1?); assay: cell_activity; details: 25 ng pULVP, HeLa
[2] = test system: UL9-KRAB chimeric repressor (ULKRAB) (Herpes simplex virus type 1?); assay: cell_activity; details: 0.8 to 1 ug pULKRAB
[3] = target: T1, GST-UL9 (UL9 C-terminal DNA-binding domain) (Herpes simplex virus type 1?, UniProt P10193 P10193:535-851); assay: EMSA; 10 nM GST-UL9, 20 mM HEPES pH 7.5, 50 mM KCl, RT; displaced by 21x; details: tags: GST fusion, pGEX-UL9 (Genelabs); label: 32P
[4] = target: T1, GST-UL9 (UL9 C-terminal DNA-binding …); assay: EMSA; 10 nM GST-UL9; 21x displacement most efficient with overlap at 3' end of site; details: tags: GST fusion, pGEX-UL9 (Genelabs); label: 32P
LacR (lac repressor) [5] = target: T2, LacR (lac repressor) (UniProt P03023 P03023:1-360); assay: EMSA; displaced by 21x; details: chain copies: 4; label: 32P
LacR (lac repressor) [6] = target: T2, LacR (lac repressor); assay: EMSA; displaced by 21x more efficiently than by IPTG; details: chain copies: 4; label: 32P

T1 sequence (P10193 535-851, one chain of several): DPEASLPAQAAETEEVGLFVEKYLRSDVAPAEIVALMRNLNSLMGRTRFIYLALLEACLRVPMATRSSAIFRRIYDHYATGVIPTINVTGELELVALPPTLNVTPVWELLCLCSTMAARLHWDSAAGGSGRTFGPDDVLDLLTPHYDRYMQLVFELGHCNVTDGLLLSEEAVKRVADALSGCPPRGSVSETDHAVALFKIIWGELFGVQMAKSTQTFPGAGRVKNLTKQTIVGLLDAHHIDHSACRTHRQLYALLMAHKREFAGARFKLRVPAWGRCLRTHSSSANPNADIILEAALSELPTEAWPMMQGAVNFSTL
T2 sequence (P03023 whole entry, one chain of several): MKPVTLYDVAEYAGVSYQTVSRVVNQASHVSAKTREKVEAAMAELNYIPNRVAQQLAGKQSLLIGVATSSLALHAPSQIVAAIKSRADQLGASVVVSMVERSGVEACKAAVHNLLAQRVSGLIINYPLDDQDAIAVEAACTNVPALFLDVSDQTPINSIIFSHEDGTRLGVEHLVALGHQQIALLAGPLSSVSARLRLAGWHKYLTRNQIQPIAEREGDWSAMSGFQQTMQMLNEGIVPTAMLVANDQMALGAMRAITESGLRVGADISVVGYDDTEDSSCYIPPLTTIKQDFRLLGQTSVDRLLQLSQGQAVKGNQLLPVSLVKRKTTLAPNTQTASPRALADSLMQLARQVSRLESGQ

Molecule: CC(C)S[C@@H]1O[C@H](CO)[C@H](O)[C@H](O)[C@H]1O [IPTG]
- LacR displacement efficiency, 21x versus IPTG (LacR): 21x appears to displace LacR more efficiently than IPTG

Molecule: Cn1cc(NC(=O)c2cc(NC(=O)c3cc(NC=O)cn3C)cn2C)cc1C(=O)NCCC(=N)N [distamycin]
- NF-kB displacement efficiency, 21x versus distamycin (p50 NF-κB): 21x displaces NF-kB more efficiently than distamycin

Molecule: p5Gal/p5GalE GAL4 response element (5 tandem repeats)
- activity ([1]; p5Gal, not activated significantly): 2 fold
- activity ([2]; p5GalE control): 62 % of basal

Molecule: p5UL/p5ULE UL9-21x response element (5 tandem repeats)
- activity ([1]; p5UL): 24 fold
- activity ([2]; p5ULE, HeLa): 5 % of basal

B1: YK 202LX (dsDNA)
DNA 1: CATGGACGCCACTGAGCCGTTTTTGTTCGCACTTGAGGCGAGTCGATGCACC
DNA 2: GGTGCATCGACTCGCCTCAAGTGCGAACAAAAACGGCTCAGTGGCGTCCATG
- binding result [3]: binds

B2: YK 202RX-A (dsDNA)
DNA 1: CATGGACGCCACTGAGCCGTGTTCGCACTTTTTTTTGAGGCGAGTCGATGCACC
DNA 2: GGTGCATCGACTCGCCTCAAAAAAAAGTGCGAACACGGCTCAGTGGCGTCCATG
- binding result [4]: binds

B3: YK 202RX (dsDNA)
DNA 1: CATGGACGCCACTGAGCCGTTTTTGTTCGCACTTTTTTTTGAGGCGAGTCGATGCACC
DNA 2: GGTGCATCGACTCGCCTCAAAAAAAAGTGCGAACAAAAACGGCTCAGTGGCGTCCATG
- binding result [4]: binds

B4: lacO modified (symmetric) (dsDNA)
DNA 1: AAAAAATTGTGAGCGCTCACAATTTTTT
DNA 2: AAAAAATTGTGAGCGCTCACAATTTTTT
- binding result (LacR (lac repressor) [5]): binds

B5: lacO modified (dsDNA)
DNA 1: TTTTTTTTGTGAGCGGATAACAAAA
DNA 2: TTTTGTTATCCGCTCACAAAAAAAA
- binding result (LacR (lac repressor) [6]): binds

Source: patent US7189506B1, “DNA binding compound-mediated molecular switch system” (Genelabs Technologies, Inc.)
